Here are results for 1 molecule from patent publication US20220226454A1 (KEYSTONE BIO, published 2022).

Experiment [1] has as its target whole bacterial cells of P. gingivalis (Porphyromonas gingivalis).
In experiment [2] the target is T1, recombinant GST-gingipain rGP-1 fusion protein.
T1 construct: also called GST-Gp; GST-Gingipain recombinant protein
As to the kind of experiment: ELISA, wells coated with rGP-1 and probed with varying concentrations of KB001. Background: ELISA stands for enzyme-linked immunosorbent assay.

B1: KB-001 mouse monoclonal antibody (antibody, V domains shown)
VH: EVQLKQSGPGLVAPSQSLSITCTVSGFSLSIYSVHWVRQPPGKGLEWLGMIWGGGSSDYNSALKSRLSISKDNSKSQVFLKMNSLQTDDTAMYYCARNGNFYAMDYWGQGTSVTVSS
VL: QIVLTQSPAIMSASLGERVTMTCTASSSVSSSFLHWYQQKPGSSPQLWIYSTSNLASGVPARFSGSGSGTSYSLTISSMEAEDAATYYCHQYHHSPYIYTFGGGTKLEIKR
notes: also called Pg/gingipain antibody
With B1, the affinity in experiment [1], expressed as Kd, was 11.4 nM. In experiment [2], the binding result is “binds”.
